Source: US20220235144A1 (QILU PUGET SOUND BIOTHERAPEUTICS, published 2022)
Changes are numbered by the printed parent chain.

T1: cSIRPαV1D1 with histidine tag (cynomolgus monkey (Macaca fascicularis), UniProt Q5TFQ8 30-146 (human entry))
T1 construct: also called cynomolgus monkey SIRPαV1D1; not shown: histidine tag
T1 chain: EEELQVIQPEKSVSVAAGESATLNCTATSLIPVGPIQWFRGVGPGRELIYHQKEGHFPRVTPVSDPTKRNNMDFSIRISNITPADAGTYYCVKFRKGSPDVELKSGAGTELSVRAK

T2: cSIRPαV2D1 with histidine tag (cynomolgus monkey (Macaca fascicularis), UniProt Q5TFQ8 30-146 (human entry))
T2 construct: also called cynomolgus monkey SIRPαV2D1; not shown: histidine tag
T2 chain: T1 chain with E19D, A27V, T28S, V42A, H51N, Q52L

B1: Ab4_G4 (antibody, human IgG4 S228P, kappa)
heavy: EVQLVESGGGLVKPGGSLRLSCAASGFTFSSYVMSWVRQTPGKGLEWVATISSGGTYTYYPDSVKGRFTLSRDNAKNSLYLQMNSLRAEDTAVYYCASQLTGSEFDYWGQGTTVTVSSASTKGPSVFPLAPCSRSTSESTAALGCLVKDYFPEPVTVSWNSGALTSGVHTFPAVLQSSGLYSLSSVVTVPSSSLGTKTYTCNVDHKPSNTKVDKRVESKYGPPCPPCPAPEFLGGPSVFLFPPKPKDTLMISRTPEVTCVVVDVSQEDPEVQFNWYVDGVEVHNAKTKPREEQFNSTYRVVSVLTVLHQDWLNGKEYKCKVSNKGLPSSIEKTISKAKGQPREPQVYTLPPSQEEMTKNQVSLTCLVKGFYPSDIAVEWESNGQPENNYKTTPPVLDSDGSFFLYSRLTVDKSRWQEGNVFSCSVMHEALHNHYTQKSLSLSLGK
light: DIVITQSPASLAVSLGERATISCRASESVDSYGNSFMHWYQQKPGQPPKLLIYRASNLESGVPDRFSGSGSRTDFTLTINPLQAEDVATYYCHQSADLPWTFGGGTKVEIKRTVAAPSVFIFPPSDEQLKSGTASVVCLLNNFYPREAKVQWKVDNALQSGNSQESVTEQDSKDSTYSLSSTLTLSKADYEKHKVYACEVTHQGLSSPVTKSFNRGEC
notes: human IgG4 format
B2: Ab8_G4 (antibody, human IgG4 S228P, kappa, V domains shown)
VH: EVQLVESGGGLVKPGGSLRLSCAASGFTFSSYVMSWVRQTPGKGLEWVATISSGGTYTYYPESVKGRFTLSRDNAKNSLYLQMNSLRAEDTAVYYCASQLTGSEFDYWGQGTTVTVSS
VL: DIVMTQSPASLAVSLGERATISCRASESVDSYGNSFMHWYQQKPGQPPKLLIYRASNLESGVPDRFSGSGSRTDFTLTINPLQAEDVATYYCHQSADLPWTFGGGTKVEIKR
notes: human IgG4 format
B3: Ab12_G4 (antibody, human IgG4 S228P, kappa)
heavy: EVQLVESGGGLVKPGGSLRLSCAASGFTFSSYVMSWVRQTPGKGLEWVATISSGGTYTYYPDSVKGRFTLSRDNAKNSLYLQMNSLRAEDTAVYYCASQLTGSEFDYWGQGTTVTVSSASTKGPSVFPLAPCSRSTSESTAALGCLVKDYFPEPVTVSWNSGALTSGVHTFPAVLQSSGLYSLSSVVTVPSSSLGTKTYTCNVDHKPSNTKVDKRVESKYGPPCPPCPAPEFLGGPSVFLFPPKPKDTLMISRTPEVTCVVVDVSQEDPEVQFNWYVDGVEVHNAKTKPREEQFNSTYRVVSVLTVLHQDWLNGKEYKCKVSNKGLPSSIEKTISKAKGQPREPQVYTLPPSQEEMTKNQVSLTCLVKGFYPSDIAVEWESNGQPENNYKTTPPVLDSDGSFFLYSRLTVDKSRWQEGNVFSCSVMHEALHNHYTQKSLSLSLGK
light: B1 light with I4L
notes: human IgG4 format
B4: Ab2_G4 (antibody, human IgG4 S228P, kappa, V domains shown)
VH: B2 VH with E62D, Q99S, L100V, T101D, E104A
VL: DIVITQSPASLAVSLGERATISCRASESVDSYGMSFMHWYQQKPGQPPKLLIYRASNLESGVPDRFSGSGSRTDFTLTINPLQAEDVATYYCHQSSENLPWTFGGGTKVEIKR
notes: human IgG4 format
B5: Ab1_G2 (antibody, human IgG2, V domains shown)
VH: B2 VH with E62S, Q99S, E104S
VL: B4 VL with I4L, S31L, M34T, E97D, N98E
B6: Ab11_G2 (antibody, human IgG2, V domains shown)
VH: B2 VH with E62D
VL: B2 VL with M4I, A96G
notes: same antibody as Ab11_G4 except human IgG2 CH1, hinge, CH2 and CH3
B7: Ab24_G4 (antibody, human IgG4 S228P, kappa)
heavy: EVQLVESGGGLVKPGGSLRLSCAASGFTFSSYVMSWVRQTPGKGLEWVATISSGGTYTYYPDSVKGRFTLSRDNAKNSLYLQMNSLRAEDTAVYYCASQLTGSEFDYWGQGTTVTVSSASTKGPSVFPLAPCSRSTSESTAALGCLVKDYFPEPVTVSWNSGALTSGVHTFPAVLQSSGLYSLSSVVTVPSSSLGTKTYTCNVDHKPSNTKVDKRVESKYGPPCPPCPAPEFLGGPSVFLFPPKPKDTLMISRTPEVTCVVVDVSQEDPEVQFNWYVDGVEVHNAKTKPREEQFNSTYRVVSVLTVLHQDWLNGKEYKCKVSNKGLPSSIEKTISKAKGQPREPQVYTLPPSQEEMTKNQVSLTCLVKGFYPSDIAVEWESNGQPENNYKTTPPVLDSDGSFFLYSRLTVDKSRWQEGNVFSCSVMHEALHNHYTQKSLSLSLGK
light: DIVLTQSPASLAVSLGERATISCRASESVDLYGTSFMHWYQQKPGQPPKLLIYRASNLESGVPDRFSGSGSRTDFTLTINPLQAEDVATYYCHQSSDELPWTFGGGTKVEIKRTVAAPSVFIFPPSDEQLKSGTASVVCLLNNFYPREAKVQWKVDNALQSGNSQESVTEQDSKDSTYSLSSTLTLSKADYEKHKVYACEVTHQGLSSPVTKSFNRGEC
notes: human IgG4 format
B8: Ab9_G4 (antibody, human IgG4 S228P, kappa, V domains shown)
VH: B2 VH with E62N, A97V, Q99S, L100M, E104S
VL: B4 VL with M34N, N98Q
notes: human IgG4 format
B9: Ab9_G2 (antibody, human IgG2, V domains shown)
VH: B2 VH with E62N, A97V, Q99S, L100M, E104S
VL: B4 VL with M34N, N98Q
notes: same antibody as Ab9_G4 except human IgG2 CH1, hinge, CH2 and CH3

What follows are binders tested against T3, hSIRPαV1D1 with histidine tag (human, UniProt P78324 31-147) (assay: SPR (Biacore 3000), IgG captured on anti-human IgG, His-tagged D1 analyte).
T3 construct: analyte of the Biacore experiments; also called first immunoglobulin-like domain of human SIRPα variant V1; not shown: histidine tag
From the text: (§1) Goat anti-human IgG capture antibody (Jackson Laboratories; 109-005-098) was immobilized on the four flow cells in each sensor chip using standard amine coupling chemistry. About 8000 resonance units (RU) of this antibody was immobilized on each flow cell. Flow cells 2, 3, and 4 were used to analyze captured anti-SIRPα antibodies (about 250 to 300 RU were captured on each of flow cells 2, 3, and 4), while flow cell 1 was used as the reference flow cell. The analytes tested were hSIRPαV1D1, hSIRPαV2D1, cynomolgus monkey SIRPαV1D1 (cSIRPαV1D1), cSIRPαV2D1, hSIRPβ1D1, and hSIRPγD1, each of which also included a histidine tag. The sequences of cSIRPαV1D1 and cSIRPαV2D2 are provided in SEQ ID NOs: 143 and 142, respectively. To avoid confusion, the differences between the amino acid sequences of cSIRPαV1D1 and cSIRPαV2D1 are not the same as the differences between the amino acid sequences of hSIRPαV1D1 and hSIRPαV2D1. […] The amino acid sequence of hSIRPβ1D1 can be found in amino acids 30-148 of SEQ ID NO: 144, and the amino acid sequence of hSIRPγD1 can be found in amino acids 31-149 of SEQ ID NO: 141.
(§2) Generally, concentrations from about 0.1×KD to about 10×KD are appropriate for kinetic analysis. From one to six different concentrations were evaluated for each antibody:analyte interaction, depending on the comparisons to be made in an individual experiment. All analyte dilutions were prepared in HPS-EP buffer. Multiple blank (running buffer) injections were run and used to assess and subtract system artifacts. The association phase and dissociation phase for all analyte concentrations were monitored for 180 seconds and 300 seconds, respectively, at a flow rate of 50 μL/min. Between antibody samples, the surfaces of the flow cells were regenerated with 10 mM glycine, pH 1.5 using two injections, each lasting 12 seconds at a flow rate of 50 μL/min.
(§3) The data were analyzed using BIAevaluation software (Biacore, General Electric (GE)). The data was fit using the 1:1 Langmuir model.

T3 sequence (P78324 31-147 limits assumed): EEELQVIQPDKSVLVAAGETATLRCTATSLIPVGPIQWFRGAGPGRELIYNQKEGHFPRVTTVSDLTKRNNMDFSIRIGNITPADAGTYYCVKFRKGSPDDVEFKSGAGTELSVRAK

| Kd [nM] | Binder |
| --- | --- |
| 307 | B1 |
| 411 | B2 |
| 348 | B3 |
| 226 | B4 |
| 50.7 | B5 |
| 125 | B6 |
| 21.4 | B7 |
| 102 | B8 |
| 75 | B9 |

The binders below were run against T4, hSIRPαV2D1 with histidine tag (human) in the same assay as above.
T4 construct: analyte of the Biacore experiments; also called first immunoglobulin-like domain of human SIRPα variant V2; not shown: histidine tag
From the text: as §1, §2, §3

T4 sequence (chain, as listed by the source limits assumed): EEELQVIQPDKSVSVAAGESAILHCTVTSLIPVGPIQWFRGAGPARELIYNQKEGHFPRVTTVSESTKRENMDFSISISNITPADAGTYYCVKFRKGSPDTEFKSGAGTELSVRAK

| Kd [nM] | Binder |
| --- | --- |
| 4.04 | B1 |
| 6.02 | B2 |
| 4.6 | B3 |
| 3.06 | B4 |
| 2.51 | B5 |
| 1.92 | B6 |
| 0.956 | B7 |
| 2.97 | B8 |
| 2.11 | B9 |

Molecular target: T1, cSIRPαV1D1 with histidine tag
Assay: as above
From the text: as §1, §2, §3

| Kd [nM] | Binder |
| --- | --- |
| 165 | B1 |
| 256 | B2 |
| 197 | B3 |
| 145 | B4 |
| 26.9 | B5 |
| 98 | B6 |
| 8.59 | B7 |
| 183 | B8 |
| 155 | B9 |

Molecular target: T2, cSIRPαV2D1 with histidine tag
Assay: as above
From the text: as §1, §2, §3

| Kd [nM] | Binder |
| --- | --- |
| ~714 | B1 |
| ~1050 | B2 |
| ~727 | B3 |
| ~709 | B4 |
| 287 | B5 |
| ~475 | B6 |
| ~432 | B8 |
| ~426 | B9 |

What follows are binders tested against T5, hSIRPβ1D1 with histidine tag (human, UniProt O00241 30-148) in the same assay as above.
T5 construct: analyte of the Biacore experiments; also called hSIRPβD1; not shown: histidine tag
From the text: as §1, §2, §3

T5 sequence (O00241 30-148): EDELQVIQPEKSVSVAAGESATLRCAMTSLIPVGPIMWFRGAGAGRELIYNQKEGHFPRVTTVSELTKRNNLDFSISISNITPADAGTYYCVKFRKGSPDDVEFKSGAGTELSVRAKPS

| Kd [nM] | Binder |
| --- | --- |
| 24.3 | B1 |
| 44.3 | B2 |
| 29 | B3 |
| 53.6 | B4 |
| 1.39 | B5 |
| 8.58 | B6 |
| 0.217 | B7 |
| 6.43 | B8 |
| 6.63 | B9 |

The binders below were run against T6, hSIRPγD1 with histidine tag (human, UniProt Q9P1W8 31-149) in the same assay as above.
T6 construct: also called first immunoglobulin-like domain of human SIRP Gamma; not shown: histidine tag
From the text: as §1, §2, §3

T6 sequence (Q9P1W8 31-149): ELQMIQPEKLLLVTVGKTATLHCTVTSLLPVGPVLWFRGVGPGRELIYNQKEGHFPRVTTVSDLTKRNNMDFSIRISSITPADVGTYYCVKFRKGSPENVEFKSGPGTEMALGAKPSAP

| Kd [nM] | Binder |
| --- | --- |
| ~4560 | B1 |
| ~6200 | B2 |
| ~5020 | B3 |
| ~944 | B4 |
| 168 | B5 |
| ~3060 | B6 |
| 140 | B7 |
| ~616 | B8 |
| ~457 | B9 |

What follows are binders tested against T7, hSIRPαV2 expressed on the cell surface (human, UniProt P78324 31-504) (assay: flow cytometry on primary human monocytes (FSC/SSC gate) in PBMCs expressing only SIRPαV2, antibody detected with APC-(Fab)2 goat anti-human IgG Fc (MFI at about 670 nm)).
T7 construct: whole, on cells; also called human SIRPα variant V2
Experimental: FIG. 6: Binding of anti-SIRPα antibodies to T cells and monocytes. Methods are described in Example 4. […] The x axes show the antibody concentration in μg/ml. The y axes show mean fluorescence intensity (MFI) at about 670 nm (due to binding of allophycocyanin (APC)-conjugated (Fab)₂ goat anti-human IgG Fc-specific secondary antibody).
Some of the anti-SIRPα antibodies were tested in vitro for binding to primary T cells and monocytes in peripheral blood mononuclear cells (PBMCs). Briefly, PBMCs that expressed only SIRPα V2 were seeded in 96-well microtiter plates. Serial dilutions of anti-SIRPα antibodies were incubated with the cells on ice for 30 minutes. […] The cells were then subjected to FACs. T cells were gated based on their anti-CD4 or anti-CD8 binding (detected by FITC fluorescence), since T cells commonly express either CD4 or CD8. Monocytes were gated based on their forward scatter/side scatter (FSC/SSC) profile, since a characteristic FSC/SSC profile can identify monocytes. See, e.g., Marimuthu et al., Characterization of human monocytes subsets by whole blood flow cytometry analysis, J. Vis. Exp. (140), e57941, doi:10.3791/57941 (2018). The binding of anti-SIRPα antibodies to each population was reported as a mean fluorescence intensity (MFI) of the APC channel (670 nm).

T7 sequence (P78324 other isoform, or with tags, fused parts or gaps limits assumed): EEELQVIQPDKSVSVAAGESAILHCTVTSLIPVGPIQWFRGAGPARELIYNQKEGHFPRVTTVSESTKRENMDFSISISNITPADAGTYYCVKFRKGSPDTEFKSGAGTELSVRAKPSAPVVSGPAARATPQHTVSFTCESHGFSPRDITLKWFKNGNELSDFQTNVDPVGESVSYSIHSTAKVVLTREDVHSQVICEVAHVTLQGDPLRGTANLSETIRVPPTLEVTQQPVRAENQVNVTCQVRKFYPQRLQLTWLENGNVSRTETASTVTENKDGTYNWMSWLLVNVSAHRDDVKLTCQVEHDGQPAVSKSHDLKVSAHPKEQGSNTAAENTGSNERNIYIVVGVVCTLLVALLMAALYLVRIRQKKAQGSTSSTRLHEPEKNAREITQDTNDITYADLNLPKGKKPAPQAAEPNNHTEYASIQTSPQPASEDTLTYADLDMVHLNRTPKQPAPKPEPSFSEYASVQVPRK

| EC50 (read off the curve) [µg/mL] | Binder |
| --- | --- |
| ~0.03 | B7 |

Each binder was assayed against T7, hSIRPαV2 expressed on the cell surface (assay: FACS competition on EXPI293 cells stably expressing hSIRPαV2: biotinylated hCD47:Fc (2.5 µg/ml) mixed with serial dilutions of the antibody, bound hCD47:Fc detected with streptavidin-PE (MFI); blocked ligand: hCD47:Fc).
Experimental: The x axes show the antibody concentration in μg/ml. The y axes show mean fluorescence intensity (MFI) at about 572 nm (due to binding of biotinylated CD47:Fc, detected by a streptavidin-phycoerythrin conjugate).
Some of the anti-SIRPα antibodies described above were tested in vitro for their ability to inhibit binding of CD47 to hSIRPαV1 or hSIRPαV2 expressed on the surface of EXPI293™ cells stably transfected with DNA encoding these proteins. Briefly, stable transfectants expressing hSIRPαV1 or hSIRPαV2 were seeded into 96-well microtiter plates. […] After 30 minutes incubation, cells were washed, streptavidin-phycoerythrin (streptavidin-PE) was added, and cells were subjected to FACS to detect bound hCD47:Fc. Results were reported as a mean fluorescence intensity (MFI) using FlowJo software (FLOWJO, L.L.C., Ashland, Oreg., USA). FIGS. 4 and 5 show the MFI detected on the y axes of both panels and the antibody concentration on the x axes of both panels.

| IC50 (read off the curve) [µg/mL] | Binder |
| --- | --- |
| ~0.4 | B8 |
